From US20250215403A1, “Compositions and Methods for Cardiac Tissue Regeneration” (Temple University - Of The Commonwealth System Of Higher …, priority 2022, published 2025) come the findings set out here.

This data set has as its system NRVM (neonatal rat ventricular CMs). The data set is described as follows: NRVM transfection (modRNA, siRNA, PH755): CM cell cycle markers and CM number. It is filed as cell-based. The protocol:
In vivo transfection of modRNA was done as described previously in a recent method paper (Magadum A., et al., Circulation. 2020, 141 (15): 1249-1265; Sultana N., et al., Mol Ther, 2017, 25 (6): 1306-1315) using sucrose citrate buffer containing 10 μl of sucrose in nuclease-free water (0.3 g/ml), 10 μl of citrate (0.1M pH-7; Sigma) mixed with 10 μl of different concentrations of modRNA in saline to a total volume of 30 μl. Immediately after LAD ligation, mice received an intra-myocardial injection of modRNA (100 μg) in total volume of 30 μL at 3 different sites (mid-anterior×2 places and apical anterior) in the peri-infarct area (Magadum A., et al., Circulation. 2020, 141 (15): 1249-1265; Magadum, A., et al., 2021, Advanced Science, 9:2004661). For in vitro transfection, RNAiMAX transfection reagent (Life Technologies) was used according to manufacturer's recommendation (Magadum A., et al., Circulation. 2020, 141 (15): 1249-1265; Sultana N., et al., Mol Ther, 2017, 25 (6): 1306-1315).
Mice hearts were harvested, weighed, and fixed in 4% PFA/PBS overnight on shaker and then washed with PBS for 1 hour and incubated in 30% sucrose/PBS at 4° C. for 12-18 hours. Hearts were then fixed in OCT and frozen at −80° C. (Magadum A., et al., Circulation. 2020, 141 (15): 1249-1265). Transverse heart sections (6-8 μm) were made using a cryostat. Frozen sections were rehydrated in PBS for 5-10 min followed by permeabilization with PBS with 0.1% Triton™ X100 (PBST) for 7-8 min. Heart sections were then treated with 3% H2O2 for 5 min and washed (3×5 min) with PBST. The samples were then blocked with PBS+10% Donkey normal serum+0.1% Triton™ X100 (PBSST) for 1 hour at room temperature. Primary antibodies (see complete list of primary antibodies used for this Example in Table 2 below) diluted in PBST were added and incubated overnight at 4° C. Slides were washed with PBST (3×5 min) followed by incubation with a secondary antibody (Invitrogen, 1:200) diluted in PBST for 90-120 min at room temperature. The samples were further washed with PBST (3×5 min) and stained with DAPI or Hoechst 33342 (1 μg/ml) diluted in PBST for 7 min. […] For immunostaining with wheat germ agglutinin (WGA) for CM size quantification, images were captured at 40× magnification, and ImageJ was used to determine the area of each cell. Quantitative analyses involved counting of multiple fields from 5-8 mouse hearts per group, and 3-4 sections/heart (˜50 cells per field assessed, for a total ˜250 cells per sample). […] BrdU positive CMs were counted in multiple fields from three independent samples per group and 3 sections/heart. The total number of CMs counted was ˜1-1.5×10^3 CMs per section. […]

B1: PSAT1 modRNA: modified mRNA with N1-methylpseudouridine, transcribed in vitro, encoding phosphoserine aminotransferase 1 (ORF SEQ ID NO: 1, RNA SEQ ID NO: 2) (nucleic acid)
chain: AUGGAAGCCACCAAGCAAGUGGUUAACUUUGGGCCCGGGCCUGCCAAGCUGCCACACUCGGUAUUGUUGGAGAUCCAGAAGCAGCUACUAGACUACAGAGGACUCGGCAUCAGUGUGCUCGAAAUGAGUCACAGGUCAUCAGAUUUUGCCAAGAUUAUUGGCAAUACAGAGAAUCUUGUGAGGGAAUUGCUAGCUGUUCCCAACAACUACAAGGUGAUCUUUGUACAAGGAGGUGGGUCUGGCCAGUUCAGUGCUGUCCCCUUAAAUCUGAUUGGCCUGAAAGCUGGAAGGAGUGCUGACUACGUGGUGACCGGAGCUUGGUCAGCUAAGGCUGCGGAAGAAGCCAAGAAGUUUGGAACGGUGAACAUUGUCCACCCUAAACUUGGAAGUUACACAAAAAUUCCAGACCCAAGCACCUGGAACCUCAACCCGGACGCCUCCUAUGUAUACUUCUGUGCAAACGAGACUGUGCACGGGGUGGAGUUUGACUUCGUACCUGACGUCAAGGGAGCGGUGCUGGUCUGUGACAUGUCCUCAAACUUCUUAUCCAGGCCGGUGGAUGUUUCCAAGUUUGGUGUGAUUUUCGCUGGUGCUCAGAAGAAUGUUGGCUCUGCCGGGGUGACGGUGGUGAUUGUCCGGGAUGACCUGCUGGGGUUCUCGCUCAGAGAGUGCCCAUCAGUCCUUGACUACAAAGUGCAGGCUGGGAACAACUCUUUGUAUAACACACCUCCGUGCUUCAGCAUCUACGUCAUGGGCAUGGUCCUGGAAUGGAUCAAGAACAACGGCGGGGCCGCAGCCAUGGAGAAGCUCAGCUCCAUCAAAUCCCAAAUGAUUUAUGAGAUCAUUGAUAAUUCUCAAGGAUUUUAUGUAUGCCCAGUGGAGCGCCAGAAUAGAAGCAGGAUGAACAUCCCAUUUCGCAUUGGCAACGCCAAAGGAGACGAAGCUUUGGAAAAGCGGUUUCUUGACAAGGCGGUAGAACUCAACAUGAUCUCCUUGAAGGGGCACAGGUCAGUGGGAGGCAUUCGUGCCUCUCUGUAUAACGCUGUCACAACCGAAGACGUUGAGAAGCUGGCGGCCUUCAUGAAGAAUUUCUUGGAGAUGCAUCAGCUGUGA
modifications: N1-methylpseudouridine
As to B1, the “CM mitosis (pH3+)” value (NRVM, after 3 days, vs Luc modRNA) was “significantly induced”. Further, the CM number entry (NRVM, in 5 days, vs Luc modRNA) is “increased”. For the same molecule, for the setting “NRVM, PSAT1 modRNA plus PH755 10 μM, compared to control, significantly lower rate than PSAT1 modRNA alone”, the “CM cell cycle restriction under SSP inhibition” value is recorded as “partially reversed”. For the same molecule, the “dedifferentiation of CMs” value (post-PSAT1 modRNA expression) was “Increased”.
